We go through seven variants from the supplement of paper PMC12338614.

The chains are these.
B1: library; numbered along this chain (parent)
chain: MEVVDPQQLGMFTEGELMSVGMDTFIHRIDSTEVIYQPRRKRAKLIGKYLMGDLLGEGSYGKVKEVLDSETLCRRAVKILKKKKLRRIPNGEANVKKEIQLLRRLRHKNVIQLVDVLYNEEKQKMYMVMEYCVCGMQEMLDSVPEKRFPVCQAHGYFCQLIDGLEYLHSQGIVHKDIKPGNLLLTTGGTLKISDLGVAEALHPFAADDTCRTSQGSPAFQPPEIANGLDTFSGFKVDIWSAGVTLYNITTGLYPFEGDNIYKLFENIGKGSYAIPGDCGPPLSDLLKGMLEYEPAKRFSIRQIRQHSWFRKKHPPAEAPVPIPPSPDTKDRWRSMTVVPYLEDLHGADEDEDLFDIEDDIIYTQDFTVPGQVPEEEASHNGQRRGLPKAVCMNGTEAAQLSTKSRAEGRAPNPARKACSASSKIRRLSACKQQ

± gives the uncertainty stated by the source.

In the data set the parent is B1. As to the kind of experiment: STK11 functional score (HeLa growth suppression), rescaled enrichment; synonymous median = 1, nonsense median = 0 (normalised score). To be noted: with HeLa; variant type: missense. Put shortly: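 HeLa cells carrying an AAVS1 landing pad received codon-optimised STK11 libraries made by codon randomisation (POPCode), integrated by Bxb1, with three regions each transfected three times. Integrants that were BFP-negative and mCherry-positive were sorted by FACS 4–5 days after electroporation and then grown for about two weeks. Tiled amplicons from gDNA were sequenced on NextSeq at ~2 million reads per tile. The functional score is a wild-type-corrected log ratio of post- to pre-selection counts, rescaled to the synonymous and nonsense medians, merged across codons and replicate transfections, and given a bootstrapped error.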
With MEVVDPQQLGMFTEGELMSVGMDTFIHRIDSTEVIYQPRRKRAKLIGKYLMGDLLGEGSYGKVKEVLDSETLCRRAVKILKKKKLRRIPNGEANVKKEIQLLRRLRHKNVIQLVDVLYNEEKQKMYMVMEYCVCGMQEMLDSVPEKRFPVCQAHGYFCQLIDGLEYLHSQGIVHKDIKPGNLLLTTGGTLKISDLGVAEALHPFAADDTCRTSQGSPAFQPPEIANGLDTFSGFKVDIWSAGVTLYNITTGLYPFEGDNIYKLFENIGKGSYAIPGDCGPPLSDLLKGMLEYEPAKRFSIRQIRQHSWFRKKHPPAEAPVPIPPSPDTKDRWRSITVVPYLEDLHGADEDEDLFDIEDDIIYTQDFTVPGQVPEEEASHNGQRRGLPKAVCMNGTEAAQLSTKSRAEGRAPNPARKACSASSKIRRLSACKQQ [M335I], the STK11 functional score is 1.18 ± 0.55.

With MEVVDPQQLGMFTEGELMSVGMDTFIHRIDSTEVIYQPRRKRAKLIGKYLMGDLLGEGSYGKVKEVLDSETLCRRAVKILKKKKLRRIPNGEANVKKEIQLLRRLRHKNVIQLVDVLYNEEKQKMYMVMEYCVCGMQEMLDSVPEKRFPVCQAHGYFCQLIDGLEYLHSQGIVHKDIKPGNLLLTTGGTLKISDLGVAEALHPFAADDTCRTSQGSPAFQPPEIANGLDTFSGFKVDIWSAGVTLYNITTGLYPFEGDNIYKLFENIGKGSYAIPGDCGPPLSDLLKGMLEYEPAKRFSIRQIRQHSWFRKKHPPAEAPVPIPPSPDTKDRWRSLTVVPYLEDLHGADEDEDLFDIEDDIIYTQDFTVPGQVPEEEASHNGQRRGLPKAVCMNGTEAAQLSTKSRAEGRAPNPARKACSASSKIRRLSACKQQ [M335L], the STK11 functional score was determined as 1.03 ± 0.18.

As for MEVVDPQQLGMFTEGELMSVGMDTFIHRIDSTEVIYQPRRKRAKLIGKYLMGDLLGEGSYGKVKEVLDSETLCRRAVKILKKKKLRRIPNGEANVKKEIQLLRRLRHKNVIQLVDVLYNEEKQKMYMVMEYCVCGMQEMLDSVPEKRFPVCQAHGYFCQLIDGLEYLHSQGIVHKDIKPGNLLLTTGGTLKISDLGVAEALHPFAADDTCRTSQGSPAFQPPEIANGLDTFSGFKVDIWSAGVTLYNITTGLYPFEGDNIYKLFENIGKGSYAIPGDCGPPLSDLLKGMLEYEPAKRFSIRQIRQHSWFRKKHPPAEAPVPIPPSPDTKDRWRSFTVVPYLEDLHGADEDEDLFDIEDDIIYTQDFTVPGQVPEEEASHNGQRRGLPKAVCMNGTEAAQLSTKSRAEGRAPNPARKACSASSKIRRLSACKQQ [M335F], the STK11 functional score worked out at 1.35 ± 0.13.

As for MEVVDPQQLGMFTEGELMSVGMDTFIHRIDSTEVIYQPRRKRAKLIGKYLMGDLLGEGSYGKVKEVLDSETLCRRAVKILKKKKLRRIPNGEANVKKEIQLLRRLRHKNVIQLVDVLYNEEKQKMYMVMEYCVCGMQEMLDSVPEKRFPVCQAHGYFCQLIDGLEYLHSQGIVHKDIKPGNLLLTTGGTLKISDLGVAEALHPFAADDTCRTSQGSPAFQPPEIANGLDTFSGFKVDIWSAGVTLYNITTGLYPFEGDNIYKLFENIGKGSYAIPGDCGPPLSDLLKGMLEYEPAKRFSIRQIRQHSWFRKKHPPAEAPVPIPPSPDTKDRWRSKTVVPYLEDLHGADEDEDLFDIEDDIIYTQDFTVPGQVPEEEASHNGQRRGLPKAVCMNGTEAAQLSTKSRAEGRAPNPARKACSASSKIRRLSACKQQ [M335K], the STK11 functional score is 1.03 ± 0.7.

With MEVVDPQQLGMFTEGELMSVGMDTFIHRIDSTEVIYQPRRKRAKLIGKYLMGDLLGEGSYGKVKEVLDSETLCRRAVKILKKKKLRRIPNGEANVKKEIQLLRRLRHKNVIQLVDVLYNEEKQKMYMVMEYCVCGMQEMLDSVPEKRFPVCQAHGYFCQLIDGLEYLHSQGIVHKDIKPGNLLLTTGGTLKISDLGVAEALHPFAADDTCRTSQGSPAFQPPEIANGLDTFSGFKVDIWSAGVTLYNITTGLYPFEGDNIYKLFENIGKGSYAIPGDCGPPLSDLLKGMLEYEPAKRFSIRQIRQHSWFRKKHPPAEAPVPIPPSPDTKDRWRSHTVVPYLEDLHGADEDEDLFDIEDDIIYTQDFTVPGQVPEEEASHNGQRRGLPKAVCMNGTEAAQLSTKSRAEGRAPNPARKACSASSKIRRLSACKQQ [M335H], the STK11 functional score is -0.482 ± 0.11.

With MEVVDPQQLGMFTEGELMSVGMDTFIHRIDSTEVIYQPRRKRAKLIGKYLMGDLLGEGSYGKVKEVLDSETLCRRAVKILKKKKLRRIPNGEANVKKEIQLLRRLRHKNVIQLVDVLYNEEKQKMYMVMEYCVCGMQEMLDSVPEKRFPVCQAHGYFCQLIDGLEYLHSQGIVHKDIKPGNLLLTTGGTLKISDLGVAEALHPFAADDTCRTSQGSPAFQPPEIANGLDTFSGFKVDIWSAGVTLYNITTGLYPFEGDNIYKLFENIGKGSYAIPGDCGPPLSDLLKGMLEYEPAKRFSIRQIRQHSWFRKKHPPAEAPVPIPPSPDTKDRWRSGTVVPYLEDLHGADEDEDLFDIEDDIIYTQDFTVPGQVPEEEASHNGQRRGLPKAVCMNGTEAAQLSTKSRAEGRAPNPARKACSASSKIRRLSACKQQ [M335G], the STK11 functional score was found to be 1.55 ± 0.15.

For the variant MEVVDPQQLGMFTEGELMSVGMDTFIHRIDSTEVIYQPRRKRAKLIGKYLMGDLLGEGSYGKVKEVLDSETLCRRAVKILKKKKLRRIPNGEANVKKEIQLLRRLRHKNVIQLVDVLYNEEKQKMYMVMEYCVCGMQEMLDSVPEKRFPVCQAHGYFCQLIDGLEYLHSQGIVHKDIKPGNLLLTTGGTLKISDLGVAEALHPFAADDTCRTSQGSPAFQPPEIANGLDTFSGFKVDIWSAGVTLYNITTGLYPFEGDNIYKLFENIGKGSYAIPGDCGPPLSDLLKGMLEYEPAKRFSIRQIRQHSWFRKKHPPAEAPVPIPPSPDTKDRWRSPTVVPYLEDLHGADEDEDLFDIEDDIIYTQDFTVPGQVPEEEASHNGQRRGLPKAVCMNGTEAAQLSTKSRAEGRAPNPARKACSASSKIRRLSACKQQ [M335P], the STK11 functional score was 1.5 ± 0.2.
